Test [1] can be described thus: Peptide-mediated binding of Co-NTA magnetic beads to gray hair, visual rating on magnet. Also noted: species or system human. As for the experimental part: Approximately 5 mg of 5 mm long hair strands (90% gray, human) were transferred to 2-mL microcentrifuge tubes. Approximately 1 mL of TBST0.1 buffer (25 mM Tris, 150 mM NaCl, pH7.2, with 0.1% TWEEN®-20) or the same buffer including varying concentrations of HC263 peptide was added to the hair.
The mixtures were shaken on a Nutator for one hour at room temperature (˜22° C.). The hairs were washed three times with TBST0.5 buffer (25 mM Tris, 150 mM NaCl, pH 7.2, with 0.5% TWEEN®-20). After washing, the hairs were resuspended in 900 μL Talon buffer (50 mM sodium phosphate, pH 8.0, 300 mM sodium chloride, 0.01% TWEEN®-20). A subset of hair/peptide conjugates were washed additionally one time with 1 mL of 0.25% SLES (Sodium Lauryl Ether Sulfate) for 5 min at room temperature on the Nutator, then washed two times with 1 mL TBST0.1 buffer. Approximately 0.2 mg of TALON™ beads (DYNABEADS® TALONT™, Invitrogen, Catalog#101.01D) were washed twice with TALON™ buffer on the DYNAL® MPC™ magnet and added to each reaction in 100 μL TALON™ buffer. The magnetic beads were coated with Co-NTA, which specifically binds to the six histidine residues incorporated into the peptide (C-terminal his tag). The hair and beads were incubated for 10 minutes with gentle shaking before the tubes were placed on the magnet.
Beads binding to the hair were expected to co-migrate on the sides of the tubes once applied to the magnet. The strength of binding was visually assessed and rated on a scale of 0 (little or no observed binding) to 5 (highest amount of observed binding).
The hair binding assay of Example 3 was used to assess the strength of binding of the test peptides in Table 10.

Test [2] can be described thus: HC263-mediated binding of magnetic beads to surfaces, SEM score: yak hair. The conditions noted are these: surface yak hair, 0.2 μM HC263. As for the experimental part: (§1) Peptide HC263 (SEQ ID NO: 196) was tested for peptide-mediated binding of magnetic beads to various surfaces: human hair, yak hair, wool, cotton, SONTARA® (a nonwoven, spunlaced textile sheet fabric, E.I. duPont de Nemours and Company, Inc., Wilmington, Del.), and cellulose (filter paper). Approximately 5 mg of human hair (90% gray), yak hair, wool, cotton, SONTARA®, or filter paper were added to 2-mL microcentrifuge tubes. Approximately 1 mL of TBST0.1 buffer (25 mM Tris, 150 mM NaCl, pH 7.2, with 0.1% TWEEN®-20) containing 0.2 μM HC263 was added. The mixtures were shaken on a Nutator (BD Diagnostics, Franklin Lakes, N.J.) for 30 minutes at room temperature (˜22° C.). The samples were washed three times with TBST0.5 buffer (25 mM Tris, 150 mM NaCl, pH 7.2, with 0.5% TWEEN®-20). After washing, the samples were re-suspended in 900 μL TALON™ (Clontech, Mountain View, Calif.) buffer (50 mM sodium phosphate, pH 8.0, 300 mM sodium chloride, 0.01% TWEEN®-20). Approximately 0.2 mg of TALON™ beads (DYNABEADS® TALON™, Invitrogen, Carlsbad, Calif.; Catalog#101.01D) were washed twice with TALON™ buffer on the DYNAL® MPC™ magnet (Invitrogen) and added to each reaction in 100-μL TALON™ buffer.
(§2) The strength of binding of the magnetic beads to the various surfaces was evaluated by visualization of scanning electron microscope (SEM) images taken at 1000-fold magnification.

Test [3] can be described thus: HC263-mediated binding of magnetic beads to surfaces, SEM score: cotton. The conditions noted are these: surface cotton, 0.2 μM HC263. As for the experimental part: as §1, §2
A short description of test [4]: HC263-mediated binding of magnetic beads to surfaces, SEM score: wool. Conditions: surface wool, 0.2 μM HC263. As for the experimental part:
as §1, §2

The nature of test [5]: HC263-mediated binding of magnetic beads to surfaces, SEM score: SONTARA. Conditions: surface SONTARA, 0.2 μM HC263. As for the experimental part:
as §1, §2

Test [6] can be described thus: HC263-mediated binding of magnetic beads to surfaces, SEM score: cellulose. The conditions noted are these: surface cellulose (filter paper), 0.2 μM HC263. As for the experimental part:
as §1, §2

B1: MASGSDPS-Hair2Rnd1-GPEPEPEPEPIPEPPKEAPVVIEKPKPKPKPKPKPPA-Gray3Rnd4-GSGGGGSP-HHHHHH (peptide)
chain: MASGSDPSDRSKLYQSLEHRQPPGAHAQGPEPEPEPEPIPEPPKEAPVVIEKPKPKPKPKPKPPAAHDAKHEHRKQNHTQGSGGGGSPHHHHHH
Take B1: the “Strength of binding (5 highest, 0 lowest)” value (“Strength of binding” for short) is reported as 2 in test [1] (Table 11, peptide 0.002 μM); 5 in test [1] (Table 11, peptide 0.02 μM); 5 in test [1] (Table 11, peptide 0.2 μM).

B2: MASGSDPS-Hair2-GPEPEPEPEPIPEPPKEAPVVIEKPKPKPKPKPKPPA-Gray3-GSGGGGSP-HHHHHH (peptide)
chain: MASGSDPSAQSQLPDKHSGLHERAPQRYGPEPEPEPEPIPEPPKEAPVVIEKPKPKPKPKPKPPAHDHKNQKETHQRHAAGSGGGGSPHHHHHH
For B2, the “Strength of binding” value stood at 1 in test [2]; 0 in test [3]; 0 in test [4]; 0 in test [5]; 2 in test [1] (Table 9, peptide 0.002 μM, no SLES wash); 2 in test [1] (Table 11, peptide 0.002 μM). For the same molecule, the “Strength of binding” value in test [1] (Table 11, peptide 0.02 μM) worked out at 5; in test [1] (Table 11, peptide 0.2 μM) it was 5; in test [6], 0.

Values taken from patent US20100247590A1, “Peptide-Based Systems For Delivery Of Cosmetic Agents” (JOHNSON & JOHNSON, priority 2009, published 2010).
